Data: patent US20230348614A1 (VISTERRA, published 2023)

How the values were obtained:
[1] = target: T1, G184A (Homo sapiens, UniProt P18827); test: alanine scan: flow cytometry on HEK-293T cells expressing the mutant clone, 4320 Fab 0.50 ug/mL, normalised to WT CD138; Range %WT Binding 17; Normalized 4320 vs. BB4 60.6
T1 construct: clone of the alanine scanning library on HEK-293T cells; m17 with one substitution; also called CD138 G184A
T1 sequence (CD138 (SDC1), full length, point mutant, looked up): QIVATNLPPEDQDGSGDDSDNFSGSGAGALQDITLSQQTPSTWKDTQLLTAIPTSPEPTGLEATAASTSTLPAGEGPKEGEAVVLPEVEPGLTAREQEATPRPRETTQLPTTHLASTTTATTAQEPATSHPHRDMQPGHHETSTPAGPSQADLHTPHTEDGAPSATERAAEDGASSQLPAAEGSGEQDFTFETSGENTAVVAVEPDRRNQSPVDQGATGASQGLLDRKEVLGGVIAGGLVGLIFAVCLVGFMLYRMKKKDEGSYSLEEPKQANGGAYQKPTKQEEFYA
Method: (§1) Serial dilutions of each MAb were tested for immunoreactivity against cells expressing target protein (WT) or vector alone. Validation of target expression and optimization of detection and binding of anti-CD138 antibodies both by flow cytometry was completed in replicate (N=4). The optimal screening concentration for each MAb was determined based on the raw signal values and signal-to-background calculations specifically optimized for each test article. Optimized parameters included the use of 10% goat serum as blocking reagent. Primary antibody staining was for 60 minutes at 25° C. Wash buffer include phosphate buffered saline (divalent metal ion free), pH 7.4. […] Secondary antibodies were diluted 1:400 and incubated for 30 minutes at 25° C.
(§2) Library screens of very-high-affinity mAbs can fail to yield critical residues for antibody binding due to deficiencies of such an assay to detect and differentiate critical vs. less critical binding based on affinity and quantification of cell binding. One common approach in the literature is the use of monovalent antibody derived fragments such as Fab usually weakens binding sufficiently to allow identification of critical residues for binding. […] Binding of each test Ab to each mutant clone in the alanine scanning library was determined, in duplicate, and likewise evaluated by flow cytometry.

[2] = target: T2, T143A (Homo sapiens, UniProt P18827); test: alanine scan: flow cytometry on HEK-293T cells expressing the mutant clone, 4320 Fab 0.50 ug/mL, normalised to WT CD138; Range %WT Binding 6; Normalized 4320 vs. BB4 53.2
T2 construct: clone of the alanine scanning library on HEK-293T cells; m17 with one substitution; also called CD138 T143A
T2 sequence (CD138 (SDC1), full length, point mutant, looked up): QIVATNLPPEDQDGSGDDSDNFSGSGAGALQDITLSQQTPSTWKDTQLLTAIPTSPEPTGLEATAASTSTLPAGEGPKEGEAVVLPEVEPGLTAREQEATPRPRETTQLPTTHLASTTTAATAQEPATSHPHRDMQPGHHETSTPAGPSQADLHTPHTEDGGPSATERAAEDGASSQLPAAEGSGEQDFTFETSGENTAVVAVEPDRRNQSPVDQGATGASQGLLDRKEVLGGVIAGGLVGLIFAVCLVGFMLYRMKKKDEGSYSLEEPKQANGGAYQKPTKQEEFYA
Method: as §1, §2

[3] = target: T3, R155A (Homo sapiens, UniProt P18827); test: alanine scan: flow cytometry on HEK-293T cells expressing the mutant clone, 4320 Fab 0.50 ug/mL, normalised to WT CD138; Range %WT Binding 6; Normalized 4320 vs. BB4 39.8
T3 construct: clone of the alanine scanning library on HEK-293T cells; m17 with one substitution; also called CD138 R155A
T3 sequence (CD138 (SDC1), full length, point mutant, looked up): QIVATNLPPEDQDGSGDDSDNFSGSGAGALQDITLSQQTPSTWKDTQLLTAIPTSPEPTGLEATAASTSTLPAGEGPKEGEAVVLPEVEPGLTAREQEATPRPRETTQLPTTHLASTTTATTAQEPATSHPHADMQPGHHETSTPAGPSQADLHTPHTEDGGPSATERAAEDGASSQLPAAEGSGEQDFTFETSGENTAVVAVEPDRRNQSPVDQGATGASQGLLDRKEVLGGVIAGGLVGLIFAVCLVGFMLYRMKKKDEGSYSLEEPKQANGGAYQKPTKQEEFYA
Method: as §1, §2

[4] = target: T4, A168S (Homo sapiens, UniProt P18827); test: alanine scan: flow cytometry on HEK-293T cells expressing the mutant clone, 4320 Fab 0.50 ug/mL, normalised to WT CD138; Range %WT Binding 3; Normalized 4320 vs. BB4 57.9
T4 construct: clone of the alanine scanning library on HEK-293T cells; m17 with one substitution (alanine changed to serine); also called CD138 A168S
T4 sequence (CD138 (SDC1), full length, point mutant, looked up): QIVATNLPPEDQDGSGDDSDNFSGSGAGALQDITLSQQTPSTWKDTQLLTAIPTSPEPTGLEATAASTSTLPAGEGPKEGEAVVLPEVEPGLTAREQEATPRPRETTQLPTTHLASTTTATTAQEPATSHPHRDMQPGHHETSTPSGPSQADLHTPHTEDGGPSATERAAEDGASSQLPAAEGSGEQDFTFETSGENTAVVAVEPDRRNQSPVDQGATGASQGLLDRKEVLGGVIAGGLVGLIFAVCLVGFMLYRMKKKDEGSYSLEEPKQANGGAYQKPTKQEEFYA
Method: as §1, §2

[5] = target: T5, D210A (Homo sapiens, UniProt P18827); test: alanine scan: flow cytometry on HEK-293T cells expressing the mutant clone, 4320 Fab 0.50 ug/mL, normalised to WT CD138; Range %WT Binding 15; Normalized 4320 vs. BB4 56.7
T5 construct: clone of the alanine scanning library on HEK-293T cells; m17 with one substitution; also called CD138 D210A
T5 sequence (CD138 (SDC1), full length, point mutant, looked up): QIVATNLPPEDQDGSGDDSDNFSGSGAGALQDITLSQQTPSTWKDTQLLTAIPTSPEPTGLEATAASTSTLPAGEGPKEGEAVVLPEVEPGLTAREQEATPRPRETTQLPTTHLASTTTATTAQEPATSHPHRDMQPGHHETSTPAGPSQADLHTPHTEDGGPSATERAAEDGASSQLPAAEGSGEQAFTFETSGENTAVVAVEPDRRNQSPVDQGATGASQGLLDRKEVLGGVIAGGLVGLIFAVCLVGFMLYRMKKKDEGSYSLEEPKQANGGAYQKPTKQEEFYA
Method: as §1, §2

Mean %WT Binding [1]: 60.1 %WT
Mean %WT Binding [2]: 30.8 %WT
Mean %WT Binding [3]: 12.3 %WT
Mean %WT Binding [4]: 44.9 %WT
Mean %WT Binding [5]: 42.7 %WT
B1: Fab fragment of mAb 4320 (Fab, V domains shown)
VH: QVQLVQSGAEVKKPGASVKVSCKASGYSFSSYYMHWVRQAPGQGLEWMGTIHPSDSTTNYNQKFQGRVTMTVDTSTRTAYMELSSLRSEDTAVYYCANFVYWGQGTTVTVSS
VL: DIVMTQTPLSLSVTPGQPASISCKSSKSLLYKDGKTYLNWFLQKPGQSPQLLIYVVSTRASGVPDRFSGSGSGTDFTLKISRVEAEDVGVYYCQQLVEYPYTFGQGTKLEIKR
modifications: N-terminal Q1 observed as pyroglutamic acid (PCA) in the 138-2-5 complex
notes: In the crystal structures heavy chain residues 1-213 were traced; also called Fab4320
